Results as given in PMC3153034.

Target: recombinant Smc04048 cytochrome c from Sinorhizobium meliloti (Sinorhizobium meliloti)
Assay: SEC

stoichiometry N: 2
Substance: recombinant Smc04048 cytochrome c from Sinorhizobium meliloti (natural protein)
